Laboratory results published in publication PMC3295232 (Journal of the American Chemical Society, 2012).
Read-outs that look alike come from different tables or passages of the source. Marks after values point to notes of the source that are not given here.

Experiments:
[1] = test system: yeast pyruvate decarboxylase (YPDC); test: YPDC assay coupled to alcohol dehydrogenase/NADH; assay type: biochemical, Saccharomyces cerevisiae; conditions: pyruvate as substrate; for kcat / subunit: per subunit; for kcat / subunit / S0.5: pH 6.0, 30 °C
[2] = test system: yeast pyruvate decarboxylase (YPDC); conditions: cited from earlier work; for S0.5: pyruvate as substrate

Row | Molecule | kcat / subunit [1] [s⁻¹] | decrease in kcat as compared to YPDC [1] | S0.5 [1] [mM] | S0.5 [2] | reduction in activity compared to YPDC [2]
1 | E51D: variant at the indicated position of YPDC (protein, UniProt P06169 2-563, looked up, variant E51D) Pyruvate decarboxylase …: SEITLGKYLFERLKQVNVNTVFGLPGDFNLSLLDKIYEVEGMRWAGNANDLNAAYAADGYARIKGMSCIITTFGVGELSALNGIAGSYAEHVGVLHVVGVPSISAQAKQLLLHHTLGNGDFTVFHRMSANISETTAMITDIATAPAEIDRCIRTTYVTQRPVYLGLPANLVDLNVPAKLLQTPIDMSLKPNDAESEKEVIDTILALVKDAKNPVILADACCSRHDVKAETKKLIDLTQFPAFVTPMGKGSIDEQHPRYGGVYVGTLSKPEVKEAVESADLILSVGALLSDFNTGSFSYSYKTKNIVEFHSDHMKIRNATFPGVQMKFVLQKLLTTIADAAKGYKPVAVPARTPANAAVPASTPLKQEWMWNQLGNFLQEGDVVIAETGTSAFGINQTTFPNNTYGISQVLWGSIGFTTGATLGAAFAAEEIDPKKRVILFIGDGSLQLTVQEISTMIRWGLKPYLFVLNNDGYTIEKLIHGPKAQYNEIQGWDHLSLLPTFGAKDYETHRVATTGEWDKLTQDKSFNDNSKIRMIEIMLPVFDAPQNLVEQAKLTAATNAKQ | 0.049 | 1000 fold | 23.1 ± 1.3 |  | 
2 | E91D: variant at the indicated position of YPDC (protein, UniProt P06169 2-563, looked up, variant E91D) Pyruvate decarboxylase …: SEITLGKYLFERLKQVNVNTVFGLPGDFNLSLLDKIYEVEGMRWAGNANELNAAYAADGYARIKGMSCIITTFGVGELSALNGIAGSYADHVGVLHVVGVPSISAQAKQLLLHHTLGNGDFTVFHRMSANISETTAMITDIATAPAEIDRCIRTTYVTQRPVYLGLPANLVDLNVPAKLLQTPIDMSLKPNDAESEKEVIDTILALVKDAKNPVILADACCSRHDVKAETKKLIDLTQFPAFVTPMGKGSIDEQHPRYGGVYVGTLSKPEVKEAVESADLILSVGALLSDFNTGSFSYSYKTKNIVEFHSDHMKIRNATFPGVQMKFVLQKLLTTIADAAKGYKPVAVPARTPANAAVPASTPLKQEWMWNQLGNFLQEGDVVIAETGTSAFGINQTTFPNNTYGISQVLWGSIGFTTGATLGAAFAAEEIDPKKRVILFIGDGSLQLTVQEISTMIRWGLKPYLFVLNNDGYTIEKLIHGPKAQYNEIQGWDHLSLLPTFGAKDYETHRVATTGEWDKLTQDKSFNDNSKIRMIEIMLPVFDAPQNLVEQAKLTAATNAKQ | 11 |  |  | 1.79 ± 0.22 ^c mM | 
3 | E477Q: variant at the indicated position of YPDC (protein, UniProt P06169 2-563, looked up, variant E477Q) Pyruvate decarboxylase …: SEITLGKYLFERLKQVNVNTVFGLPGDFNLSLLDKIYEVEGMRWAGNANELNAAYAADGYARIKGMSCIITTFGVGELSALNGIAGSYAEHVGVLHVVGVPSISAQAKQLLLHHTLGNGDFTVFHRMSANISETTAMITDIATAPAEIDRCIRTTYVTQRPVYLGLPANLVDLNVPAKLLQTPIDMSLKPNDAESEKEVIDTILALVKDAKNPVILADACCSRHDVKAETKKLIDLTQFPAFVTPMGKGSIDEQHPRYGGVYVGTLSKPEVKEAVESADLILSVGALLSDFNTGSFSYSYKTKNIVEFHSDHMKIRNATFPGVQMKFVLQKLLTTIADAAKGYKPVAVPARTPANAAVPASTPLKQEWMWNQLGNFLQEGDVVIAETGTSAFGINQTTFPNNTYGISQVLWGSIGFTTGATLGAAFAAEEIDPKKRVILFIGDGSLQLTVQEISTMIRWGLKPYLFVLNNDGYTIQKLIHGPKAQYNEIQGWDHLSLLPTFGAKDYETHRVATTGEWDKLTQDKSFNDNSKIRMIEIMLPVFDAPQNLVEQAKLTAATNAKQ | 0.086 |  |  | 3.02 ± 0.22 ^b mM | 
4 | E51Q: variant at the indicated position of YPDC (protein, UniProt P06169 2-563, looked up, variant E51Q) Pyruvate decarboxylase …: SEITLGKYLFERLKQVNVNTVFGLPGDFNLSLLDKIYEVEGMRWAGNANQLNAAYAADGYARIKGMSCIITTFGVGELSALNGIAGSYAEHVGVLHVVGVPSISAQAKQLLLHHTLGNGDFTVFHRMSANISETTAMITDIATAPAEIDRCIRTTYVTQRPVYLGLPANLVDLNVPAKLLQTPIDMSLKPNDAESEKEVIDTILALVKDAKNPVILADACCSRHDVKAETKKLIDLTQFPAFVTPMGKGSIDEQHPRYGGVYVGTLSKPEVKEAVESADLILSVGALLSDFNTGSFSYSYKTKNIVEFHSDHMKIRNATFPGVQMKFVLQKLLTTIADAAKGYKPVAVPARTPANAAVPASTPLKQEWMWNQLGNFLQEGDVVIAETGTSAFGINQTTFPNNTYGISQVLWGSIGFTTGATLGAAFAAEEIDPKKRVILFIGDGSLQLTVQEISTMIRWGLKPYLFVLNNDGYTIEKLIHGPKAQYNEIQGWDHLSLLPTFGAKDYETHRVATTGEWDKLTQDKSFNDNSKIRMIEIMLPVFDAPQNLVEQAKLTAATNAKQ | 0.035 |  | 14.9 ± 1.3 |  | 
5 | C221E/C222A: double-mutant of YPDC with a substitution at the neighboring Cys222; permanently activated form (protein, UniProt P06169 2-563, looked up, variant C221E C222A) Pyruvate decarboxylase …: SEITLGKYLFERLKQVNVNTVFGLPGDFNLSLLDKIYEVEGMRWAGNANELNAAYAADGYARIKGMSCIITTFGVGELSALNGIAGSYAEHVGVLHVVGVPSISAQAKQLLLHHTLGNGDFTVFHRMSANISETTAMITDIATAPAEIDRCIRTTYVTQRPVYLGLPANLVDLNVPAKLLQTPIDMSLKPNDAESEKEVIDTILALVKDAKNPVILADAEASRHDVKAETKKLIDLTQFPAFVTPMGKGSIDEQHPRYGGVYVGTLSKPEVKEAVESADLILSVGALLSDFNTGSFSYSYKTKNIVEFHSDHMKIRNATFPGVQMKFVLQKLLTTIADAAKGYKPVAVPARTPANAAVPASTPLKQEWMWNQLGNFLQEGDVVIAETGTSAFGINQTTFPNNTYGISQVLWGSIGFTTGATLGAAFAAEEIDPKKRVILFIGDGSLQLTVQEISTMIRWGLKPYLFVLNNDGYTIEKLIHGPKAQYNEIQGWDHLSLLPTFGAKDYETHRVATTGEWDKLTQDKSFNDNSKIRMIEIMLPVFDAPQNLVEQAKLTAATNAKQ | 18.2 |  |  | 1.47 ± 0.04 ^d mM | 2–5 fold
6 | E51A: variant at the indicated position of YPDC (protein, UniProt P06169 2-563, looked up, variant E51A) Pyruvate decarboxylase …: SEITLGKYLFERLKQVNVNTVFGLPGDFNLSLLDKIYEVEGMRWAGNANALNAAYAADGYARIKGMSCIITTFGVGELSALNGIAGSYAEHVGVLHVVGVPSISAQAKQLLLHHTLGNGDFTVFHRMSANISETTAMITDIATAPAEIDRCIRTTYVTQRPVYLGLPANLVDLNVPAKLLQTPIDMSLKPNDAESEKEVIDTILALVKDAKNPVILADACCSRHDVKAETKKLIDLTQFPAFVTPMGKGSIDEQHPRYGGVYVGTLSKPEVKEAVESADLILSVGALLSDFNTGSFSYSYKTKNIVEFHSDHMKIRNATFPGVQMKFVLQKLLTTIADAAKGYKPVAVPARTPANAAVPASTPLKQEWMWNQLGNFLQEGDVVIAETGTSAFGINQTTFPNNTYGISQVLWGSIGFTTGATLGAAFAAEEIDPKKRVILFIGDGSLQLTVQEISTMIRWGLKPYLFVLNNDGYTIEKLIHGPKAQYNEIQGWDHLSLLPTFGAKDYETHRVATTGEWDKLTQDKSFNDNSKIRMIEIMLPVFDAPQNLVEQAKLTAATNAKQ | 0.0043 | 10,000 fold | 0.72 ± 0.1 |  | 
7 | E51N: variant at the indicated position of YPDC (protein, UniProt P06169 2-563, looked up, variant E51N) Pyruvate decarboxylase …: SEITLGKYLFERLKQVNVNTVFGLPGDFNLSLLDKIYEVEGMRWAGNANNLNAAYAADGYARIKGMSCIITTFGVGELSALNGIAGSYAEHVGVLHVVGVPSISAQAKQLLLHHTLGNGDFTVFHRMSANISETTAMITDIATAPAEIDRCIRTTYVTQRPVYLGLPANLVDLNVPAKLLQTPIDMSLKPNDAESEKEVIDTILALVKDAKNPVILADACCSRHDVKAETKKLIDLTQFPAFVTPMGKGSIDEQHPRYGGVYVGTLSKPEVKEAVESADLILSVGALLSDFNTGSFSYSYKTKNIVEFHSDHMKIRNATFPGVQMKFVLQKLLTTIADAAKGYKPVAVPARTPANAAVPASTPLKQEWMWNQLGNFLQEGDVVIAETGTSAFGINQTTFPNNTYGISQVLWGSIGFTTGATLGAAFAAEEIDPKKRVILFIGDGSLQLTVQEISTMIRWGLKPYLFVLNNDGYTIEKLIHGPKAQYNEIQGWDHLSLLPTFGAKDYETHRVATTGEWDKLTQDKSFNDNSKIRMIEIMLPVFDAPQNLVEQAKLTAATNAKQ | 0.0024 | 10,000 fold | 31.5 ± 12 |  | 
8 | D28A: variant at the indicated position of YPDC (protein, UniProt P06169 2-563, looked up, variant D28A) Pyruvate decarboxylase …: SEITLGKYLFERLKQVNVNTVFGLPGAFNLSLLDKIYEVEGMRWAGNANELNAAYAADGYARIKGMSCIITTFGVGELSALNGIAGSYAEHVGVLHVVGVPSISAQAKQLLLHHTLGNGDFTVFHRMSANISETTAMITDIATAPAEIDRCIRTTYVTQRPVYLGLPANLVDLNVPAKLLQTPIDMSLKPNDAESEKEVIDTILALVKDAKNPVILADACCSRHDVKAETKKLIDLTQFPAFVTPMGKGSIDEQHPRYGGVYVGTLSKPEVKEAVESADLILSVGALLSDFNTGSFSYSYKTKNIVEFHSDHMKIRNATFPGVQMKFVLQKLLTTIADAAKGYKPVAVPARTPANAAVPASTPLKQEWMWNQLGNFLQEGDVVIAETGTSAFGINQTTFPNNTYGISQVLWGSIGFTTGATLGAAFAAEEIDPKKRVILFIGDGSLQLTVQEISTMIRWGLKPYLFVLNNDGYTIEKLIHGPKAQYNEIQGWDHLSLLPTFGAKDYETHRVATTGEWDKLTQDKSFNDNSKIRMIEIMLPVFDAPQNLVEQAKLTAATNAKQ | 0.066 |  |  | 1.66 ± 0.25 ^b mM | 
